Target: His-tagged SARS-CoV-2 RBD (SARS-CoV-2 Wuhan-Hu-1, UniProt P0DTC2)
Assay: BLI

B1: Fab fragment of THSC20.HVTR26 (Fab, V domains shown)
VH: EVQLVESGGGLVQPGGSLRLSCAASGFTVSSNYMSWVRQAPGKGLEWVSAIYSGDSTYYADSVKGRFTISRHNPKNTLYLQMNSLRAEDTAVYYCARLVGALTNIVVSGDGGAFDIWGQGTMVTVSS
VL: SYELTQPASVSGSPGQSITISCTGTSSDVGSYNLVSWYQQHPGKAPKLMIYEVSKRPSGVSNRFSGSKSGNTASLTISGLQAEDEVDYYCCSYAGSSTWVFGGGTKLTVL
binding result: binds
